Test results as given in article PMC13368180, “In silico design and validation of high-affinity RNA aptamers for SARS-CoV-2 comparable to neutralizing antibodies”.

Biological target: SARS-CoV-2 spike RBD (SARS-CoV-2, UniProt P0DTC2 319-541)
Assay: EMSA
Settings: protein: commercial

B1: Ta (RBD-PB6-Ta) (structured_RNA)
RNA: GGCGACAUUUGUAAUUCCUGGACCGAUACUUCCGUCAGGACAGAGGUUGCCA
- Kd: 111 µM

B2: TaC23A (structured_RNA)
RNA: GGCGACAUUUGUAAUUCCUGGAACGAUACUUCCGUCAGGACAGAGGUUGCCA
- Kd: 55.7 ± 9.8 µM

B3: TaG34C (structured_RNA)
RNA: GGCGACAUUUGUAAUUCCUGGACCGAUACUUCCCUCAGGACAGAGGUUGCCA
- Kd: 33.5 ± 1.6 µM

B4: TaG34A (structured_RNA)
RNA: GGCGACAUUUGUAAUUCCUGGACCGAUACUUCCAUCAGGACAGAGGUUGCCA
- Kd: 55.5 ± 4.1 µM

B5: TaG34U (structured_RNA)
RNA: GGCGACAUUUGUAAUUCCUGGACCGAUACUUCCUUCAGGACAGAGGUUGCCA
- Kd: 54.7 ± 2 µM

B6: TaC23U (structured_RNA)
RNA: GGCGACAUUUGUAAUUCCUGGAUCGAUACUUCCGUCAGGACAGAGGUUGCCA
- Kd: 48.7 ± 2 µM

B7: TaC23G (structured_RNA)
RNA: GGCGACAUUUGUAAUUCCUGGAGCGAUACUUCCGUCAGGACAGAGGUUGCCA
- Kd: 168 µM

Binder: GGUCCUGGACCGAUACUUCCGUCAGGACCA (structured_RNA) [Tc (RBD-PB6-Tc)]
- binding result (hairpin): no binding
